According to the DeepSol protein solubility set:

Experiment: soluble on expression in E. coli; label from the status in PepcDB or PDB records

| Sequence | soluble on expression in E. coli |
| --- | --- |
| MDDELRGLLARYARGELSADDARRAILRYPKWRVAEIDGELETVALDDGTPMLIAESSASDGREYSGLELVRDIAPLVGGLSFDPDEPWGSAFRPGALPELQNWARTVELEDAVAKPGPGQRDLLYEGPWWVAVSPGTGRPAVHRADGLDVITIMTAPDAAATFRRTERHRGLDVVRLGPALWGDLAKRSDFDGVRLNPLRPLAQLWPPHVPAMLVAGCDPRPNAEPLPARTVAEIHLWLDQHGARQEKRELSNRATPVGEVTVARAWWNYDRREIAFTRVAPASDTEGLGSVPSRILCAGKLRQSIQSKLAGLPRLTWRADAWHRQRAALAVGWALELEKLVCGERVPFAALRTPEGAHLWHLEPQAFTARAIRKLRDRAASFR | soluble |
| MELMIGRVVKSHGIRGEVAIEVTTEEPEIRFAQGEVLNGRQGGKEHSLTIASVRPHQNRLLVKFKEIADRTAADSLRGTRFFAAPLDDDVDDGFYDHELEGLAVIHGEEKIGEVSGVIHGPAQSLLEVTLESGKEVLIPFVHDIVPEVDLDAGTCVITPPEGLLELLEHHHHHH | soluble |
| MSEPIPPFRYAPIVCSEQSTIVAEFVPEASGVREAGYQSEAELEAAFITQLQGQAYEYLSITSEAALLANLRRQLEKLNKVTLSDAEWEGFFSTCIAGAHDGIVQKTARIQEDHVQVLKRDDGTIKNMCLLDKGNIHNNILQVMNQYAVEGARGNRYDVTVLVNGLPMVHVELKRRGVDIREAFNQINRYQRDSFWAGSGLFDYVQLFVISNGTLTKYYSNTVRAGHVEEQSNKRSKSKTSNSFSFAIWWADAKNQPITELTSFTKTFFAKHSLLNVLTKYCVFNANRKLLVMRPYQIVAAERILQRIVTATHQQQLGTVAAGGYIWHTTGSGKTLTSFKVAQLACGLGVIDKVLFVVDRKDLDYQTMREYESFEKGAANSNTSTAVLQRQLEDSDVRIIITTIQKLSRFVAKHKQHPVYGAHVAVIFDECHRSQFGDMHTEITRAFQRYHLFGFTGTPIFAENAGSTQNPMRRTTQQTFGDTLHTYTIVDAINDKTVLPFRIDYINTIKSQPNINDKQVAAIDTERALLAPERIRQIVSYIREHFDQKTKRASIYRHEGQRLQGFNALLATASIDAAKRYYAELMAQQKDLPEAQRLKVGLIYSVAANEGDGDELLAEEEFETERLDQDARNFLEAAIQDYNALFGTSFDTSADKFQNYYKDVSERLKKRKLDILIVVNMFLTGFDATTLNTLWVDKRLKAHGLIQAYSRTNRILNSVKSYGNIVSFRNLEQETNEALALFGNKDAKGIVLLRPYAEYYKEYEERVGELVAAFPLGKVIVGEAAQKAFITLFGSILRLKNILTAFDDFAGQEVLTEREFQDYQSLYLNLYAEFRSASAAEKESINDDVVFEIELIKQVEINVDFILLLVEQYVKKKGTGEDKDIRATIERAIHSSPSLRNKKELIEQFVDAVSMKATVDAQWQAFVAVKQSQELEGIIAEENLNAEATREFIANAFRDGSIPATGTAITKILPPVSRFSKNNGHAAKKQTVLDKLATFFERYFGLV | soluble |
| IPNDILIVNPEAQGLVDGHKVIVKITKYPEGRMSAEGEVISILGHKNDPGMDILSIIYKYGIPQAFPEEVLQQAQNIPDEIDAGEIKNRRDLRDEPLVTIDGADAKDLDDAVHVSRLPNGNFKLGVHIADVSYYVKEKSPIDLEAAERGTSVYLVDRVIPMIPHRLSNGICSLNPQVDRLTLSCEMEITRDGQVVNHEIFQSVIRTNERMTYHDVNKILVEKEEELRNRYELLVPMFEDMEELAAILRKKRFGRGAIDFDFKEAKVLVDEEGKPSDVVIRERGVAEKLIEEFMLAANETVAEHFHWLKLPFMYRIHEDPDSEKLGRFLEFITNFGYVVRGTANTVHPRALQKLLEEVRGEPEEQVISTVMLRSMQQAK | not soluble |
| MGSDKIHHHHHHMPKNRDAARASLENLYRIFTVPEAPDSTLGAIDQAIAGDVAGFLQTHIVAIERPLEEIEADFSSFSIPEEPTYVSEYTEFVKENLVAHSVHTASPAFVGHMTSALPYFMLPLARLMTALNQNVVKVETSKAFTPMERQVLAMLHHLVYGRNDDFYPQWIHNSQHALGAFCSGGTLANVTALWVARNRLFAPDGEFRGIAQEGLARALKHRGADGIAVLVSERGHYSLGKAADLLGIGRDDLIKIKTDANNRIDLKALREECRRLQDRNTLPLALVGIAGTTETGNVDPLEAMADLAQELGCHFHVDAAWGGPTLFSDRHRHLLRGIERADSVTIDGHKQLYVPMGAGMVVFKDPTALSAIEHHANYILRHGSKDLGSHTLEGSRPGKAMLVHAGFSIIGRKGYELLIDMGIERARTFADMIQRHPDFELISEPELNILTYRYCPPAIQQALTDATAQQRAAINGLLDQVCQLLQKYQREAGKTFVSRTRLHVARHDMELTVLRVVLANPLTTDEILEAVLAEQCEIVRLPEIQALLRQAEELCPGLAKAV | not soluble |
| MFSYTDTILSIMQRIEVYNEIFKAISKEVQEYGCNQAAHRRGRDTYMFCRNNVNRFFTEEMMFRKNLEPYYDKEATKILLEGLDTYKEGVFFWLEALSESCQVTDELKYQLGIRQKESSYLLINQACKEACEGIQSAHSVHKM | not soluble |
| GPGSMKRFGIWTRPSLGRRSFYAGLDDSRVMRLRRSNTTLNKPRGRDAFSLAFEKRIHLLPLTQVGDLYGLPVPPSAPGESSGGAAEETIRVLVVDLLLLEDVESLISFPASNPLYYEDWPTVSDNSEGEVPSDRRSGISSSLALGESGFSLPSSNKRHLRQYGDTTLLRNSFVREAAHGVSAQFHTAICINPFIDVDRFRREEAQVEMISAYRNILYEAAEVPDGRADVIRIPALCCDTCGPRFYHEIGKLNQQSLIKGFHRIGSEAKETLMLNPKFIVEVYVPLPFLQQFQRAFLEDAWETPESTLNPGRTALYPGLAPPRSLLPLEGWIGKRPELVEAIETEGRSLMSGVKYSLDGKPIEEREVLAELRVFGREKEQEEMLKREEETATQQGLEVAPNGNTVAPLRAGIDQN | not soluble |
| MGSDKIHHHHHHMNDFEEYIRQSEPHKREKGYAWQTAIGLQAVDGLKPSEYLKEKARQHIEGDITIDEVKQLVDSYYKSKVARSSSEDRTEEADKVSARITEILSENTFTFSPIEYLAIHRHLFEGIFSHAGQIRDYNITKNEWVLKGATVLYASAGSIRETLEYDFSQEKIFDYKNLNIDEAIRHIARFVSGIWQIHAFGEGNTRTTAVFTIKYLHTFGFNFSNETFANHSWYFRNALVRANYNDLTKGVYATTEFLEKFFRNLILNEQNELKNRNLQIDEIEKEAIQSAKQTDMDIPKCKNCTLDCTLEEIAVLNYLKEKPNATQKEIAQHIGKSERTVKSMTVNLSERGIIERKNGRRNGFWEIKK | not soluble |
| MGSDKIHHHHHHMHHESPIRRRKTRQIHVGKVAIGGDAPISVQSMTNTETRDIAATVAQIRRLEAVGADIVRISVPSMDAAEAFKTIRAQVETPLVADIHFDHRIALQVMEDGVDGLRINPGNIGSLDKTRLVVEMAKDKGIPIRIGVNAGSLEKDIQEKYGEPTPEALVESALRHVSILDELNFHDVKISVKASDIFLAVSAYRLLSEKVDYPLHLGITEAGGLRSGTVKSAIGLGLLLRDGIGDTIRVSLAADPVEEIRVGFDILKSLHLRQKGINLIACPSCSRQEFDVITTINALEARLEDILEPMDVSVIGCVVNGIGEAKEADIGLAGGDKRSILYYRGKQVDRVENNDIVDVLEKRIRAEIAERQATRHEG | not soluble |
| SNAMAALPDKEKLLRNFTRCANWEEKYLYIIELGQRLAELNPQDRNPQNTIHGCQSQVWIVMRRNANGIIELQGDSDAAIVKGLMAVVFILYHQMTAQDIVHFDVRPWFEKMALAQHLTPSRSQGLEAMIRAIRAKAATLS | soluble |
| EVQLVESGGGLVQPGGSLRLSCAASGFTFTSTGISWVRQAPGKGLEWVGRIYPTNGSTNYADSVKGRFTISADTSKNTAYLQMNSLRAEDTAVYYCARTYGIYDLYVDYTEYVMDYWGQGTLVTVSSASTKGPSVFPLAPSSKSTSGGTAALGCLVKDYFPEPVTVSWNSGALTSGVHTFPAVLQSSGLYSLSSVVTVPSSSLGTQTYICNVNHKPSNTKVDKKVEPKSCDKTHT | soluble |
| MNIQALINDKVSQALEAAGAPAGSPAAVRQSAKPQFGDYQANGVMGVAKKLGTNPREFAQKVLDVLDLDGIASKTEIAGPGFINIFLSEEFLAKQADAALADSR | not soluble |
| MMDNNITETEMKVGHPPANKVGGRRVVNRKDRKNSDSNDNANSEGSDEVVREIIDYDLPAKMERSYPTEAVKKVHEKPMPAIQPVHINRDANSGVHRFQPRKQTH | soluble |
